Assay: in vivo
Settings: male, athymic nu/nu, mouse, iv, total radioactivity
[1] = 0.3 nmol, uptake in Red blood cell
[2] = 1 nmol, uptake in Red blood cell
[3] = 3 nmol, uptake in Red blood cell

## C[C@@H](O)[C@H](NC(=O)[C@@H]1CSSC[C@H](NC(=O)[C@@H](Cc2ccccc2)NC(=O)CN2CCN(CC(=O)O)CCN(CC(=O)O)CCN(CC(=O)O)CC2)C(=O)N[C@@H](Cc2ccc(O)cc2)C(=O)N[C@H](Cc2c[nH]c3ccccc23)C(=O)N[C@@H](CCCCN)C(=O)N[C@@H]([C@@H](C)O)C(=O)N1)C(=O)O [^111In-DOTATATE, metal not drawn]
0.3 nmol, uptake in Pituitary
  tissue uptake at 0.05 h: 0.3 %ID/g
  tissue uptake at 10 min: 0.2 ± 0.05 %ID/g
  tissue uptake at 0.5 h: 0.1 %ID/g
  tissue uptake at 1 h: < 0.05 %ID/g
0.3 nmol, uptake in Plasma
  tissue uptake at 0.05 h: 13.4 ± 1.4 %ID/g
  tissue uptake at 10 min: 7.2 ± 2 %ID/g
  tissue uptake at 0.5 h: 3.4 ± 0.5 %ID/g
  tissue uptake at 1 h: 0.7 ± 0.2 %ID/g
[1]
  tissue uptake at 0.05 h: 2.6 ± 0.6 %ID/g
  tissue uptake at 10 min: 1.3 ± 0.4 %ID/g
  tissue uptake at 0.5 h: 0.6 ± 0.1 %ID/g
  tissue uptake at 1 h: < 0.05 %ID/g
0.3 nmol, uptake in Stomach
  tissue uptake at 10 min: 3.9 ± 0.4 %ID/g
  tissue uptake at 0.5 h: 3.5 ± 0.2 %ID/g
  tissue uptake at 1 h: 3.4 ± 0.8 %ID/g
0.3 nmol, uptake in Tumor
  tissue uptake at 10 min: 8 ± 1.2 %ID/g
  tissue uptake at 0.5 h: 9.9 ± 3 %ID/g
  tissue uptake at 1 h: 9.9 ± 0.7 %ID/g
1 nmol, uptake in Adrenals
  tissue uptake at 0.5 h: 0.5 ± 0.09 %ID/g
  tissue uptake at 1 h: 0.5 ± 0.05 %ID/g
1 nmol, uptake in Kidney
  tissue uptake at 0.05 h: 17.5 ± 9.7 %ID/g
  tissue uptake at 10 min: 14.2 ± 7 %ID/g
  tissue uptake at 0.5 h: 6 ± 1.8 %ID/g
  tissue uptake at 1 h: 14.1 ± 3.4 %ID/g
1 nmol, uptake in Muscles
  tissue uptake at 0.05 h: 1.2 ± 0.4 %ID/g
  tissue uptake at 10 min: 1 ± 0.5 %ID/g
  tissue uptake at 0.5 h: 0.2 ± 0.09 %ID/g
  tissue uptake at 1 h: < 0.05 %ID/g
1 nmol, uptake in Pancreas
  tissue uptake at 0.05 h: 3.5 ± 2.4 %ID/g
  tissue uptake at 0.5 h: 0.7 ± 0.2 %ID/g
  tissue uptake at 1 h: 1.5 ± 0.3 %ID/g
1 nmol, uptake in Pituitary
  tissue uptake at 0.05 h: 0.1 ± 0.09 %ID/g
  tissue uptake at 10 min: 0.8 ± 1.4 %ID/g
  tissue uptake at 0.5 h: < 0.05 %ID/g
  tissue uptake at 1 h: < 0.05 %ID/g
1 nmol, uptake in Plasma
  tissue uptake at 0.05 h: 11.3 ± 4.9 %ID/g
  tissue uptake at 10 min: 7.6 ± 3.1 %ID/g
  tissue uptake at 1 h: 0.6 ± 0.2 %ID/g
[2]
  tissue uptake at 0.05 h: 2.3 ± 0.4 %ID/g
  tissue uptake at 10 min: 1.3 ± 0.5 %ID/g
  tissue uptake at 0.5 h: 0.3 ± 0.1 %ID/g
  tissue uptake at 1 h: 0.4 ± 0.1 %ID/g
1 nmol, uptake in Stomach
  tissue uptake at 0.05 h: 2.4 ± 1.1 %ID/g
  tissue uptake at 0.5 h: 0.8 ± 0.2 %ID/g
1 nmol, uptake in Tumor
  tissue uptake at 0.05 h: 5.6 ± 2 %ID/g
  tissue uptake at 10 min: 6.7 ± 2.9 %ID/g
  tissue uptake at 0.5 h: 2.9 ± 0.6 %ID/g
  tissue uptake at 1 h: 7 ± 1.1 %ID/g
3 nmol, uptake in Adrenals
  tissue uptake at 10 min: 1.1 ± 0.7 %ID/g
  tissue uptake at 0.5 h: 0.6 ± 0.2 %ID/g
  tissue uptake at 1 h: 0.3 ± 0.06 %ID/g
3 nmol, uptake in Kidney
  tissue uptake at 0.05 h: 19.1 ± 3.1 %ID/g
  tissue uptake at 10 min: 14.6 ± 2.9 %ID/g
  tissue uptake at 0.5 h: 14.5 ± 1.1 %ID/g
  tissue uptake at 1 h: 14.7 ± 2.1 %ID/g
3 nmol, uptake in Muscles
  tissue uptake at 0.05 h: 1.3 ± 0.3 %ID/g
  tissue uptake at 10 min: 0.8 ± 0.3 %ID/g
  tissue uptake at 0.5 h: 0.3 ± 0.1 %ID/g
  tissue uptake at 1 h: < 0.05 %ID/g
3 nmol, uptake in Pancreas
  tissue uptake at 0.05 h: 2.2 ± 0.4 %ID/g
  tissue uptake at 10 min: 1.6 ± 0.2 %ID/g
  tissue uptake at 0.5 h: 1 ± 0.2 %ID/g
  tissue uptake at 1 h: 0.8 ± 1 %ID/g
3 nmol, uptake in Pituitary
  tissue uptake at 0.05 h: 0.2 ± 0.06 %ID/g
  tissue uptake at 10 min: 0.1 ± 0.06 %ID/g
  tissue uptake at 0.5 h: 0.08 ± 0.06 %ID/g
  tissue uptake at 1 h: < 0.05 %ID/g
3 nmol, uptake in Plasma
  tissue uptake at 0.05 h: 13.8 ± 1.7 %ID/g
  tissue uptake at 10 min: 8.4 ± 0.9 %ID/g
  tissue uptake at 1 h: 0.6 ± 0.2 %ID/g
[3]
  tissue uptake at 10 min: 2.4 ± 0.3 %ID/g
  tissue uptake at 0.5 h: 0.6 ± 0.2 %ID/g
  tissue uptake at 1 h: < 0.05 %ID/g
3 nmol, uptake in Stomach
  tissue uptake at 0.05 h: 3.2 ± 0.5 %ID/g
  tissue uptake at 10 min: 2.3 ± 0.2 %ID/g
  tissue uptake at 0.5 h: 1.5 ± 0.6 %ID/g
  tissue uptake at 1 h: 1.6 ± 0.7 %ID/g
3 nmol, uptake in Tumor
  tissue uptake at 0.05 h: 2.9 ± 1.1 %ID/g
